Source: publication PMC4746636
Several values for one entry are separate records, joined by “and”; a condition that tells them apart may be missing. Equal values may be shown once.

T1: TRF2 (full length, recombinant His6-tagged) (human), Q15554
T1 chain: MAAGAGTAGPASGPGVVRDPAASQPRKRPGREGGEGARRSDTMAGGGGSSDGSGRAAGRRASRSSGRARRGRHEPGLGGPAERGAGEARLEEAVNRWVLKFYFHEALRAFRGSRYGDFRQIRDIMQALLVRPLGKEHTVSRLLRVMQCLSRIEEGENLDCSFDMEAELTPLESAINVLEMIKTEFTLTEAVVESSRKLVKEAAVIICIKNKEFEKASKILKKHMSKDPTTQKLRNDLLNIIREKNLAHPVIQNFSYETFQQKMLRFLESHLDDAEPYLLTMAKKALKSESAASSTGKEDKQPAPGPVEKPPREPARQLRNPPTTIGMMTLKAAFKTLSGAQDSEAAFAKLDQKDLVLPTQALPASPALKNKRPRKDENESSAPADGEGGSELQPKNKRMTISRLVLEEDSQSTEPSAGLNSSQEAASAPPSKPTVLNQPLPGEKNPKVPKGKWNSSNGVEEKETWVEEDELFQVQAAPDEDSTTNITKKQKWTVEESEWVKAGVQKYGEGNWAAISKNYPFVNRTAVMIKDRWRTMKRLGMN


Legend:
[1] = molecular target: TRF2 (UniProt Q15554); assay: AFM imaging; conditions: N = 126; same conditions as T270; EMSA: 5 nM DNA, 100 nM TRF2, agarose gel; buffer, salt, pH and temperature not given in the material; AFM compaction comparison of TRF2ΔB at 300 nM protein
[2] = molecular target: T1, TRF2 (full length, recombinant …); assay: AFM volume analysis; TRF2 protein alone deposited on mica; AFM volume converted to oligomeric state by a calibration curve of volume against molecular weight; monomer to dimer; conditions: remark: other sources report otherwise
[3] = molecular target: T1, TRF2 (full length, recombinant …); assay: AFM volume analysis; TRF2 (400 nM, mixed with an equal volume of DNA) incubated with linear T270 DNA (270 TTAGGG repeats) for 30 min in 50 mM HEPES, 150 mM KCl, pH 7.5, diluted 10 fold and deposited on mica; volumes of small DNA-bound complexes (< 500 nm^3); conditions: remark: other sources report otherwise

stoichiometry N [2] | stoichiometry N [3] | Molecule | binding signal (% DNA with large complexes) [1]
 |  | DNA with no telomeric sequences | < 8
2 | 2 and 4 | TRF2 (full length, recombinant His6-tagged), Q15554 1-542 (natural protein) MAAGAGTAGPASGPGVVRDPAASQPRKRPGREGGEGARRSDTMAGGGGSSDGSGRAAGRRASRSSGRARRGRHEPGLGGPAERGAGEARLEEAVNRWVLKFYFHEALRAFRGSRYGDFRQIRDIMQALLVRPLGKEHTVSRLLRVMQCLSRIEEGENLDCSFDMEAELTPLESAINVLEMIKTEFTLTEAVVESSRKLVKEAAVIICIKNKEFEKASKILKKHMSKDPTTQKLRNDLLNIIREKNLAHPVIQNFSYETFQQKMLRFLESHLDDAEPYLLTMAKKALKSESAASSTGKEDKQPAPGPVEKPPREPARQLRNPPTTIGMMTLKAAFKTLSGAQDSEAAFAKLDQKDLVLPTQALPASPALKNKRPRKDENESSAPADGEGGSELQPKNKRMTISRLVLEEDSQSTEPSAGLNSSQEAASAPPSKPTVLNQPLPGEKNPKVPKGKWNSSNGVEEKETWVEEDELFQVQAAPDEDSTTNITKKQKWTVEESEWVKAGVQKYGEGNWAAISKNYPFVNRTAVMIKDRWRTMKRLGMN | 
